Several values for one entry are separate records, joined by “and”; a condition that tells them apart may be missing. Identical values can stand only once.
Columns and labels:
[1] = target: soluble Fas L (recombinant FasL)
[2] = target: FasL expressed by anti-CD3-activated Jurkat cells
[3] = target: FasL expressed by anti-CD3-activated Jurkat cells; remark: listed apart in the source
[4] = system: Jurkat cells; assay: anti-CD3 induced Jurkat apoptosis (Annexin V/PI, FACS); format: cell-based; conditions: Example 12; Jurkat + antiCD3 + 10 μM DEVD-cmk
Description: Non-tissue treated 24 well plates (Decton Dickinson, Mansfield, Mass.) were coated with 0.5 ml of 1 ug/ml anti-CD3 (Farmingen) in PBS for 90 min at 37° C. The plate was washed once with PBS.
Cells were incubated overnight at 37° C. incubator and cells were then stained by Annexin V and PI staining. Apotosis was analyzed by flow cytometer (FACS). Cell apoptosis was indicated by positive staining with Annexin V.

[5] = system: LIGHT; assay: LIGHT cell surface binding assay by flow cytometry
Description: To confirm the dot blot binding between LIGHT and mFLINT, 293 cells were transiently transfected with LIGHT expression construct overnight. On the next day, cells were detached and incubated with mFLINT-Flag on ice. […] As a control we used vector transfected cells. To make sure that the binding was specific, a competition assay with 10 fold access of untagged mFLINT was performed.
More particularly, 6 well dishes of cells were transfected as above. Both vector and m-LIGHT expressing cells were provided. Cells were detached from the plates by vigorous pipetting with a P100 Pipettor. Then, in PBS/BSA, 0.1%, cells were exposed to one of the following combinations, set forth in a-d.
a. GST/flag, mFLINT/flag, or HVEM at 20 nM;
b. FLINT/flag at 20 nM+GST/flag or mFLINT or HVEM at 200 nM;
c. FLINT/flag at 20 nM+HVEM+anti-human FAS ligand at 200 n-M;
d. anti-human FAS ligand-biotin at 1 μg/ml
Cells were incubated on ice for 30 minutes and washed with PBS/BSA, 0.1%. Cells then were exposed either to anti-human IgG-biotin, 1 μg/ml (for detection of HVEM), or to M2-biotin, 2 μg/ml (for detection of flag conjugates). Cells were incubated on ice for 30 minutes and washed with PBS/BSA, 0.1%. Thereafter, cells were exposed to streptavidin Alexa 488 (SIGMA) at a 1:1000 dilution. Again, cells were incubated on ice for 30 minutes and washed with PBS/BSA, 0.1 1%. Cells were analyzed using a FACSORT flow cytometer (Decton Dickinson) to determine binding.

[6] = target: T1, FasL (Homo sapiens, UniProt P48023); assay: BiaCore real-time biomolecular interaction analysis (surface plasmon resonance); format: binding; conditions: immobilized FasL (monomer bound), analyte in solution
T1 construct: purchased Kamiya Biomedical Company
T1 sequence (P48023 130-281 limits assumed): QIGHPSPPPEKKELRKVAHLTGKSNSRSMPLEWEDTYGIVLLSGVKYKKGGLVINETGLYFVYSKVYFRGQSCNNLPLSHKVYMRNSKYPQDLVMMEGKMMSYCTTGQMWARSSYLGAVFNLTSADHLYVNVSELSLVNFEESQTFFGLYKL
Source text: FLINT-Fas L binding may be confirmed and specifics of binding determined (e.g., kinetics, specificity, affinity, cooperativity, relative binding pattern, concentration) using real-time biomolecular interaction analysis. This technology confers the ability to study biomolecular interactions in real time, without labeling any of the interactants. In particular, it takes advantage of the optical phenomenon surface plasmon resonance, and detection depends on changes in the mass concentration of macromolecules at the biospecific interface. Interactions are followed in real time, so that kinetic information is readily derived. In many cases, investigations can be performed without prior purification of components.
Measurements are accomplished using a BiaCore 2000 instrument. The instrument, accompanying chips, immobilization and maintenance kits and buffers are obtained from Biacore AB, Rapsgatan 7, S-754 50 Uppsala, Sweden. FasL is obtained from Kamiya Biomedical Company, 910 Industry Drive, Seattle, Wash. 98188, Guanidine Isothiocyanate Solution from GibcoBRL, and mFLINT is prepared as in Examples 8 and 9.
Experiments using immobilized FasL loaded with a solution containing mFLINT. […] This is explained by the fact that FasL is a trimer, yet here FasL monomer was bound. Further experiments utilized bound FLINT with FasL in solution, allowing for trimer formation. […] This observations indicate that FLINT should effectively compete with Fas for FasL binding, which likely explains the therapeutic benefit observed in experiments detailed below.

[7] = target: T2, hFasLigand (Flag-tagged) (Homo sapiens, UniProt P48023); assay: ELISA: FasLigand binding to adsorbed FLINT and Fas; conditions: 100 ng receptor adsorbed
T2 sequence (P48023 103-281 limits assumed): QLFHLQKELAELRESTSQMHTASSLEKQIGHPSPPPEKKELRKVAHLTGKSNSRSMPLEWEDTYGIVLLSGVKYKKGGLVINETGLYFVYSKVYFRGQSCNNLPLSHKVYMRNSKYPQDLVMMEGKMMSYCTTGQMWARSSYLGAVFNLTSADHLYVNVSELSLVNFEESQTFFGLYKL
Description: FLINT and Fas (100 ng of each) were adsorbed on to an ELISA plate. hFasLigand (Flag-tagged) was added at different concentrations to a maximum concentration of 300 ng down to 0.1 ng on TBST plus a 0.1% solution containing 1 microgram/ml of M2 Abs. After washing of the plate, anti-mouse-Abs-HRP (1:3000 dilution, Bio-Rad) was added to the wells. After washings, visualization enzymatic reaction using ABTS as a substrate was performed.

[8] = system: Mouse T cell hybridoma cells (LTT cells); assay: Murine FasL-mediated apoptosis of LTT cells (Annexin V assay); format: cell-based; conditions: test agent 1 μg/ml
Description: (§1) LTT,2,14,11 cells (LTT cells), see Glasebrook, Eur.J.Immunol. 17: 1561-65 (1987), were used in this Annexin V assay. On the first day, a 96 well plate was coated with anti-CD3 (2C11) at a serial dilutions. On the second day, 100,000 LTT cells were added, in 50 μl of medium per well, along with 50 μl of medium to the control wells and 50 μl of medium containing:
Group 1. solubleFas (sFas)(FasFc, mouse), with a final concentration of 1 μg/ml
Group 2. mFLINT (human), with a final concentration of 1 ug/ml
Group 3. anti-FasL (mouse), with a final concentration of 1 ug/ml.
These then were incubated overnight, at 37° C., in 5% CO2;
On the following day (Day 3), the cells were collected from each well, washed and labeled with Annexin V and PI, following Flow cytometry analysis.

[9] = system: Mouse T cell hybridoma cells (LTT cells); assay: Murine FasL-mediated apoptosis of LTT cells (MTS cytotoxicity assay); format: cell-based; conditions: test agent 1 μg/ml
Description: as §1
The same steps as in Example 16 were followed on Day 1 and Day 2. On Day 3 20 ul of MTS solution (Promega) was added to the cells which were then incubated at 37° C. for 2 hours. Using a plate reader, the absorbances at 490 nm wavelength were collected.

[10] = system: Jurkat cells; assay: Recombinant FasL induced Jurkat cell apoptosis (Annexin V/PI, FACS); format: cell-based; conditions: Jurkat + inducer alone 200 ng/ml, overnight
Description: One milliliter of 1×10^6 cell/ml was added into each well of 24 well tissue culture plate and treated with following reagents: soluble Fas L (200 ng), Fas L plus 1 ug mFLINT, Fas L plus 1 ug OPG2-Fc, Trail (200 ng), Trail plus 1 ug mFLINT. Cells were incubated overnight at 37° C. and then stained with Annexin V and PI.

OPG2-Fc (Fc fusion)
apoptosis of Jurkat cells, Annexin V and PI (FACS) [1]: 70.6 | apoptosis of Jurkat cells, positive staining with Annexin V (FACS) [2]: 45.8 | apoptosis of Jurkat cells [3]: 26.2

DEVD-cmk [DEVDcmk, reference compound]
Cell apoptosis (positive staining with Annexin V) [4]: 30.80

B1: mFLINT-Flag: FLINT with the Flag sequence attached at the C-terminal end: [FLINT]-DYKDDDDK (protein)
chain: VAETPTYPWRDAETGERLVCAQCPPGTFVQRPCRRDSPTTCGPCPPRHYTQFWNYLERCRYCNVLCGEREEEARACHATHNRACRCRTGFFAHAGFCLEHASCPPGAGVIAPGTPSQNTQCQPCPPGTFSASSSSSEQCQPHRNCTALGLALNVPGSSSHDTLCTSCTGFPLSTRVPGAEECERAVIDFVAFQDISIKRLQRLLQALEAPEGWGPTPRAGRAALQLKLRRRLTELLGAQDGALLVRLLQALRVARMPGLERSVRERFLPVHDYKDDDDK
cell surface binding (flow cytometry peak shift) ([5]; LIGHT-transfected 293 cells): peaks shifted only when LIGHT expressing cells were stained with mFLINT-Flag | cell surface binding (flow cytometry peak shift) ([5]; vector transfected control cells): no shift in the control cells

B2: Fas: Fas receptor protein adsorbed on ELISA plate or compared in BiaCore (protein, UniProt P25446 22-169, looked up)
extracellular domain: QGTNSISESLKLRRRVRETDKNCSEGLYQGGPFCCQPCQPGKKKVEDCKMNGGTPTCAPCTEGKEYMDKNHYADKCRRCTLCDEEHGLEVETNCTLTQNTKCKCKPDFYCDSPGCEHCVRCASCEHGTLEPCTATSNTNCRKQSPRNR
modifications: extracellular domain
notes: Fas receptor protein adsorbed on ELISA plate or compared in BiaCore
Kd [6]: 162 nM | OD, 405 nM ([7]; FasL 0.1 ng): 0 | OD, 405 nM ([7]; FasL 0.5 ng): 0 | OD, 405 nM ([7]; FasL 1.0 ng): 0 | OD, 405 nM ([7]; FasL 5.0 ng): .01 | OD, 405 nM ([7]; FasL 10 ng): .03 | OD, 405 nM ([7]; FasL 50 ng): .045 | OD, 405 nM ([7]; FasL 100 ng): .18

B3: SFas: solubleFas (sFas)(FasFc, mouse) (protein)
chain: B2 extracellular domain
% Annexin V Positive ([8]; Anti CD3 0): 23.14% | % Annexin V Positive ([8]; Anti CD3 0.11): 41.08% | % Annexin V Positive ([8]; Anti CD3 0.33): 47.28% | % Annexin V Positive ([8]; Anti CD3 1): 56.66% | MTS absorbance at 490 nm ([9]; Anti CD3 conc. 0 μg/ml): 1.774 | MTS absorbance at 490 nm ([9]; Anti CD3 conc. 0.0014 μg/ml): 1.968 | MTS absorbance at 490 nm ([9]; Anti CD3 conc. 0.004 μg/ml): 1.929 | MTS absorbance at 490 nm ([9]; Anti CD3 conc. 0.012 μg/ml): 1.779 | MTS absorbance at 490 nm ([9]; Anti CD3 conc. 0.037 μg/ml): 1.777 | MTS absorbance at 490 nm ([9]; Anti CD3 conc. 0.11 μg/ml): 1.638 | MTS absorbance at 490 nm ([9]; Anti CD3 conc. 0.33 μg/ml): 1.624 | MTS absorbance at 490 nm ([9]; Anti CD3 conc. 1 μg/ml): 1.459

B4: TRAIL: TNF ligand TRAIL (RnD Systems) (protein, UniProt P50591 1-281, looked up)
Tumor necrosis factor ligand …: MAMMEVQGGPSLGQTCVLIVIFTVLLQSLCVAVTYVYFTNELKQMQDKYSKSGIACFLKEDDSYWDPNDEESMNSPCWQVKWQLRQLVRKMILRTSEETISTVQEKQQNISPLVRERGPQRVAAHITGTRGRSNTLSSPNSKNEKALGRKINSWESSRSGHSFLSNLHLRNGELVIHEKGFYYIYSQTYFRFQEEIKENTKNDKQMVQYIYKYTSYPDPILLMKSARNSCWSKDAEYGLYSIYQGGIFELKENDRIFVSVTNEHLIDMDHEASFFGAFLVG
Cell apoptosis (Annexin V and PI, FACS) [10]: 17.47 and 17.43

Reference: patent publication US20040167074A1, “Therapeutic applications of mFLINT polypeptides” (priority 1998, published 2004)
